Measurements published in patent publication US9675675B2, “Microneedle device having a peptide therapeutic agent and an amino acid, methods of making and using the same” (3M INNOVATIVE PROPERTIES COMPANY, priority 2011, dated 2017).

Assays:
[1] = Storage stability of lysozyme in dried coating on microneedle arrays, HPLC content; format: physicochemical; conditions: 10 mg/mL lysozyme in PBS; for Percent of Initial Lysozyme Content in the Coating, Initial: freshly coated reference standard, about 4° C.; for Percent of Initial Lysozyme Content in the Coating, Day 1 / Percent of Initial Lysozyme Content in the Coating, Day 3 / Percent of Initial Lysozyme Content in the Coating, Day 7 / Percent of Initial Lysozyme Content in the Coating, Day 14: stored 40° C., 96% RH
Description: (§1) The protein or polypeptide content in the formulation coated on the microneedle arrays was determined using an Agilent 1100 HPLC system (Agilent Technologies, Wilmington, Del.) equipped with a binary pump, well-plated thermostated autosampler, thermostated column compartment, and a diode array UV detector. A Zorbax 300SB-C8 column (Agilent Technologies, Wilmington, Del.) having a 5 μm particle size and 2.1×150 mm inner diameter was used for the separations. The column was maintained at 50° C. The mobile phase consisted of two eluents. Eluent A was 0.1% TFA (trifluoroacetic acid) in water and eluent B was 0.1% TFA in acetonitrile (Spectrum Chemical, New Brunswick, N.J.). A linear gradient from 80/20 to 50/50 (A/B) was applied over 30 minutes. The flow rate was 0.4 mL/minute and the UV detection wavelength was set at 214 nm. The total run time was 34 minutes and the sample injection volume was 15 μL.
A sample formulation containing 10 mg/mL of lysozyme and 12 mg/mL of L-histidine monohydrochloride (His-HCl) in PBS was prepared. The pH of the sample formulation was 5.5-6.0. A control formulation was also prepared containing 10 mg/mL of lysozyme in PBS. […] The pH of the control formulation was 6.5. Microneedle arrays were coated with either the sample or the control formulation. The coating was applied by dropwise addition of 50 μL of the formulation to the portion of the array defined by the octagon shaped pattern of microneedles. The flood coated arrays (both sample and control formulation coated) were dried in an oven at 35° C. for about 15 hours.
After drying, the coated arrays were placed in a storage chamber that was maintained at 40° C. and 96% relative humidity (RH). The lysozyme content of the coated arrays was determined following storage in the chamber for 1, 3, 7, and 14 days. At the designated time point, an array was taken from the chamber and washed with PBS (2 mL) to remove the coating from the array. An aliquot of the resulting wash solution was analyzed for lysozyme content using the HPLC method described above. Reference standards were prepared by measuring the lysozyme content of freshly coated arrays (both sample and control formulation coated). The arrays used as reference standards were stored in a refrigerator at about 4° C. and analyzed within one day of being prepared. The percentage of undegraded lysozyme remaining in the coating at each time point was determined by measuring the peak area for lysozyme in the selected coating and dividing it by the peak area measured for lysozyme in the corresponding reference standard.
The same procedure as described in Example 7 was used with the exception that the sample formulation contained 12 mg/mL of L-arginine hydrochloride, instead of L-histidine monohydrochloride. The pH of the sample formulation was 6.5.

[2] = Storage stability of insulin in dried coating on microneedle arrays, HPLC content; format: physicochemical; conditions: 5 mg/mL insulin in 0.1 N acetic acid, pH 3.0-3.5; for Percent of Initial Insulin Content in the Coating, Initial: freshly coated reference standard, about 4° C.; for Percent of Initial Insulin Content in the Coating, Day 1 / Percent of Initial Insulin Content in the Coating, Day 3 / Percent of Initial Insulin Content in the Coating, Day 7 / Percent of Initial Insulin Content in the Coating, Day 14: stored 40° C., 96% RH
Description: as §1
The pH of the sample formulation was 3.0-3.5. […] The pH of the control formulation was 3.0-3.5. Microneedle arrays were coated with either the sample or the control formulation. The coating was applied by dropwise addition of 50 μL of the formulation to the portion of the array defined by the octagon shaped pattern of microneedles. The flood coated arrays (both sample and control formulation coated) were dried in an oven at 35° C. for about 15 hours.
After drying, the coated arrays were placed in a storage chamber that was maintained at 40° C. and 96% relative humidity (RH). […] At the designated time point, an array was taken from the chamber and washed with 0.1 N acetic acid (1 mL) to remove the coating from the array. […] The arrays used as reference standards were stored in a refrigerator at about 4° C. and analyzed within one day of being prepared.
[…] The pH of the sample formulation was 3.0-3.5.

[3] = Amino acid: L-Arginine (12 mg/mL Arg-HCl), pH 6.5
[4] = Amino acid: L-Histidine (12 mg/mL His-HCl), pH 5.5-6.0
[5] = Amino acid: None (control), pH 6.5
[6] = Amino acid: L-Arginine (12 mg/mL Arg-HCl)
[7] = Amino acid: L-Histidine (12 mg/mL His-HCl)

## lysozyme
[1]; [3]
  Percent of Initial Lysozyme Content in the Coating, Initial: 100%
  Percent of Initial Lysozyme Content in the Coating, Day 1: 52.6%
  Percent of Initial Lysozyme Content in the Coating, Day 3: 33.1%
  Percent of Initial Lysozyme Content in the Coating, Day 7: 22.4%
  Percent of Initial Lysozyme Content in the Coating, Day 14: 23.0%
[1]; [4]
  Percent of Initial Lysozyme Content in the Coating, Initial: 100%
  Percent of Initial Lysozyme Content in the Coating, Day 1: 100.0%
  Percent of Initial Lysozyme Content in the Coating, Day 3: 80.6%
  Percent of Initial Lysozyme Content in the Coating, Day 7: 60.1%
  Percent of Initial Lysozyme Content in the Coating, Day 14: 53.3%
[1]; [5]
  Percent of Initial Lysozyme Content in the Coating, Initial: 100%
  Percent of Initial Lysozyme Content in the Coating, Day 1: 26.9%
  Percent of Initial Lysozyme Content in the Coating, Day 3: 4.4%
  Percent of Initial Lysozyme Content in the Coating, Day 7: 1.9%
  Percent of Initial Lysozyme Content in the Coating, Day 14: 1.9%

## Insulin
[2]; [6]
  Percent of Initial Insulin Content in the Coating, Initial: 100%
  Percent of Initial Insulin Content in the Coating, Day 1: 75.4%
  Percent of Initial Insulin Content in the Coating, Day 3: 45.9%
  Percent of Initial Insulin Content in the Coating, Day 7: 27.1%
[2]; [7]
  Percent of Initial Insulin Content in the Coating, Initial: 100%
  Percent of Initial Insulin Content in the Coating, Day 1: 95.3%
  Percent of Initial Insulin Content in the Coating, Day 3: 93.5%
  Percent of Initial Insulin Content in the Coating, Day 7: 79.2%
  Percent of Initial Insulin Content in the Coating, Day 14: 34.9%
[2]; Amino acid: None (control)
  Percent of Initial Insulin Content in the Coating, Initial: 100%
  Percent of Initial Insulin Content in the Coating, Day 3: 0%
  Percent of Initial Insulin Content in the Coating, Day 7: 0%
  Percent of Initial Insulin Content in the Coating, Day 14: 0%
